The source of these data is patent US20190248900A1 (Y BIOLOGICS, published 2019).

Like-named read-outs stand apart in the source and are kept apart here.

Experiment [1] deals with T1, human PD-1 (NM_005018.2) over-expressed on cells (human, UniProt Q15116 25-288). The experiment in a line: cell-based or functional assay.
Experiment [2] has as its target T2, PD1-hFc (human, UniProt Q15116 25-170).
T2 construct: extracellular domain; also called PD1-hFc protein; Human PD-1-Fc (S1420, Y-Biologics)
The experiment in a line: competition ELISA: PD1-Fc coated, PDL1-His as binder, antibody as competitor. How it is done:
(§1) Human PD-1-Fc (S1420, Y-Biologics) or PD-L2-Fc (#10292-H02H, Sino) was added to wells of a 96-well immuno microplate (#439454, Thermo) and then washed three times with PBS containing 0.05% tween-20 (#P9416, Sigma-Aldrich), followed by allowing to stand in a cleaning solution containing 4% skim milk (#232120, Becton, Dickinson and Company) at room temperature for 1 hour to block non-specific binding. […] After the resulting product was subjected to the same washing method as above, the anti-Biotin-His antibody (#MA1-21315-BTIN, Thermo) diluted to 1:2000 was added to the well of the microplate, allowed to react at room temperature for 1 hour, streptavidin poly-HRP antibody (#21140, Pierce) diluted to 1:5000 was added to the well of microplate, reacted at room temperature for 1 hour and then washed in the same manner. 100 ul of a TMB substrate solution (#T0440, Sigma-Aldrich) was added to the reaction product, light was shielded, and the reaction product was allowed to stand at room temperature for 3 minutes, 50 μL of 2.5 M sulfuric acid (#S1478, Samchun) was added to stop the reaction, and absorbance was measured at 450 nm using a spectrophotometer (*GM3000, Glomax® Discover System Promega).
For orientation: An ELISA detects its analyte on a solid surface through an enzyme-linked reagent.

For experiment [3], the target named is T3, monkey PD1 protein (monkey).
T3 construct: also called monkey PD-1 proteins
The experiment in a line: SPR ProteOn XPR36; format for monkey PD1 not described.

The target in experiment [4] is T2, PD1-hFc. Briefly: SPR ProteOn XPR36, PD1-hFc immobilised, antibody as analyte; parent antibody, Example 4 text (FIG. 9), not the Table 12 run. The procedure: (§2) A ProteOn XPR36 (BioRad) instrument was used. The GLC sensor chip (BioRad) was mounted on the instrument and washed with PBST buffer, and the carboxymethyldextran surface was activated with an EDC/sulfo-NHS mixed solution. PD1-hFc dissolved at a concentration of 5 ug/ml in a 10 mM sodium acetate buffer solution (pH 5.0) was injected and immobilized on the GLC sensor chip.
(§3) In order to deactivate the activated carboxyl groups that remain unreacted with the PD1 protein, 1 M ethanolamine was flowed and 10 mM glycine (pH 2.0) was injected in order to wash proteins that remain unbound to the sensor chip.
(§4) The equilibrium dissociation constant (KD) was calculated by plotting and fitting the sensogram data in the equilibrium state depending on concentration.

Experiment [5] addresses T1, human PD-1 (NM_005018.2) over-expressed …. The experiment in a line: flow cytometry, 18 nM, over IgG.
Experiment [6] deals with T4, PD-1-His (S1352, Y-Biologics) (UniProt Q15116 25-170, limits assumed).
T4 construct: not shown: His tag
Briefly: competition ELISA: PD-L2-Fc coated, PD-1-His as binder, antibody as competitor. How it is done:
as §1

In experiment [7] the target is T1, human PD-1 (NM_005018.2) over-expressed …. Briefly: flow cytometry on cells over-expressing human PD-1, fit of Geometric Mean. (In general: A flow cytometer gives signals particle by particle.)
Experiment [8] has as its target T2, PD1-hFc. The experiment in a line: SPR ProteOn XPR36, PD1-hFc immobilised, antibody as analyte. How it is done:
as §2, §3, §4

Experiment [9] concerns the target T2, PD1-hFc. The experiment in a line: ProteOn XPR36; legend names PD1-hFc, the sheet names the immobilised protein PD-1 C-his.
For experiment [10], the target named is T1, human PD-1 (NM_005018.2) over-expressed …. Briefly: cell-based or functional assay. The source holds these as a separate data set.
For experiment [11], the target named is T5, rat PD1 protein (rat, UniProt D3ZIN8 25-169).
T5 construct: also called rat PD-1 proteins
T5 sequence: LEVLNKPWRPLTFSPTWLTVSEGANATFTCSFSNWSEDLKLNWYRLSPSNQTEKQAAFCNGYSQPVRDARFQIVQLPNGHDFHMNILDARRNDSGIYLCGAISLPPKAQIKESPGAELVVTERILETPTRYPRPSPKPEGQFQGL
Briefly: SPR ProteOn XPR36; format for rat PD1 not described.

B1: PD1-41C9 (antibody, V domains shown)
VH: QMQLVESGGGVVQPGRSLRLSCAASGFTFSSYAMHWVRQAPGKGLEWVAVISYDGSNKYYADSVKGRFTISRDNSKNTLYLQMNRLRSEDTAVYYCTTTTFDSWGQGTLITVSS
VL: DIVMTQTPLSLPVTPGEAASISCRSSQSLLDSEDGNTYLDWYLQKPGQSPQLLIYTLSHRASGVPDRFSGSGSGTDFTLKISRVAAEDVGLYYCLQRMGFPYTFGQGTKLDIK
notes: scFv-phage in the screening ELISA; whole IgG in the other assays
Broadly, the EC50 is the concentration giving half of the maximal effect. The molecule B1 gave an EC50 in experiment [1] of 3.57 nM.

B2: PD1-49A2 (antibody, V domains shown)
VH: QVQLVESGGGVVQPGRSLRLSCAASGFTFSSYAMHWVRQAPGKGLEWVAVISYDGSNKYYADSVKGRFTISRDNPKNTLYLQMNSLRAEDTAVYYCTTTTFDSWGRGTLVTVSS
VL: DIVMTQSPLSLPVTPGEPASISCRSSQSLFDSDDGNTYLDWYLQKPGQSPQLLIYTLSHRASGVPDRFSGSGSGTDFTLKISRVEAEDVGIYYCLQRMGFPYTFGQGTKVEIK
notes: scFv-phage in the screening ELISA; whole IgG in the other assays; also called Parent 49A2
For orientation: IC50 means the concentration at which inhibition is half-maximal. By Kd is commonly meant the constant that tells how readily two partners part at equilibrium. The koff is the rate constant with which the complex falls apart. As usually defined, the kon is the rate constant with which the complex forms. On to B2, for which the IC50 in experiment [2] came out at 3.92 nM; in [6], 59.7 nM. In experiment [1], this molecule displayed an EC50 of 2.05 nM. Also, the Kd amounted to 0.001 nM in experiment [3], 0.019 nM in experiment [4], 38.2 nM in [7] and 0.237 nM in [8]. The koff in experiment [3] turned out to be 1e-07 s⁻¹; in [8], 9.37e-05 s⁻¹. Further, the kon was found to be 168000 M⁻¹ s⁻¹ in experiment [3] and 395000 M⁻¹ s⁻¹ in [8]. For the same molecule, the Fold in experiment [5] is 222. Besides, the Bmax in experiment [7] was found to be 3000.

B3: PD1-45D6 (antibody, V domains shown)
VH: QVQLVESGGGVVQPGRSLRLSCAASGFTFSSYAMHWVRQVPGKGLEWVAVISYDGNDKYYADSVKGRFTISRDNSKNTLYLQMNSLRAEDTAVYYCVPTTFEYWGQGSQVTVSS
VL: DIVMTQTPLSLPVTPGEAASISCRSSQSLLDSDDGKTYLDWYLQKPGQSPQLLIYTLSYRASGVPDRFSGSGSGTEFNLRISRVEAEDVGIYYCMQRVEFPFTFGQGTKLDIK
notes: as for B1
In the case of B3, the IC50 in [2] stood at 3.72 nM; in [6] it was 49.6 nM. Also, the EC50 in experiment [1] is 1.29 nM; in experiment [10] it was 1.88 nM. In addition, the Kd in experiment [9] is under 0.001 nM; in experiment [3], 0.001 nM; in experiment [11] it was 2.39 nM; in experiment [7] it was 2.7 nM. Besides, the results for the koff in experiment [9], in [3] and in [11] were under 1.07e-07 s⁻¹, 1e-07 s⁻¹ and 0.000133 s⁻¹, respectively. Further, the kon in experiment [3] was 154000 M⁻¹ s⁻¹; in experiment [11], 55400 M⁻¹ s⁻¹; in experiment [8] it was 270000 M⁻¹ s⁻¹. The same molecule gave a Fold in [5] of 286. Moreover, the Bmax in experiment [7] amounted to 1640.
